Data published in US20110124071A1, “METHODS AND COMPOSITIONS FOR PRODUCING HYDROCARBONS” (priority 2009, published 2011).

Tests used:
[1] = test system: E. coli MG1655; test: Coexpression of putative decarbonylase with S. elongatus PCC7942 orf1594 in E. coli, GC-MS of extracts; assay type: cell-based; conditions: coexpressed with S. elongatus PCC7942 orf1594 in E. coli MG1655, M9 minimal media
Procedure: After a 1 μl splitless injection (inlet temperature held at 300° C.) onto the GC/MS column, the oven was held at 100° C. for 3 mins. The temperature was ramped up to 320° C. at a rate of 20° C./min. The oven was held at 320° C. for an additional 5 min. The flow rate of the carrier gas helium was 1.3 ml/min. The MS quadrapole scanned from 50 to 550 m/z. Retention times and fragmentation patterns of product peaks were compared with authentic references to confirm peak identity.
The genomic DNA encoding Synechococcus elongatus PCC7942 orf1594 (YP—400611; putative aldehyde-generating enzyme) (SEQ ID NO: 65) was amplified and cloned into the NcoI and EcoRI sites of vector OP-80 (pCL1920 derivative) under the control of the Ptrc promoter. The resulting construct (“OP80-PCC7942—1594”) was transformed into E. coli MG1655 and the cells were grown at 37° C. in M9 minimal media with 1% (w/v) glucose as carbon source and supplemented with 100 μg/ml spectinomycin. When the culture reached OD600 of 0.8-1.0, it was induced with 1 mM IPTG and cells were grown for an additional 18-20 h at 37° C. Cells from 0.5 ml of culture were extracted with 0.5 ml of ethyl acetate. After sonication for 60 min, the sample was centrifuged at 15,000 rpm for 5 min. The solvent layer was analyzed by GC-MS as described in Example 1.
The genomic DNA encoding Synechococcus elongatus PCC7942 orf1593 (YP—400610; putative decarbonylase) (SEQ ID NO: 1) was amplified and cloned into the NdeI and XhoI sites of vector OP-183 (pACYC derivative) under the control of the Ptrc promoter. The resulting construct was cotransformed with OP80-PCC7942—1594 into E. coli MG1655 and the cells were grown at 37° C. in M9 minimal media supplemented with 100 μg/ml spectinomycin and 100 μg/ml carbenicillin. The cells were cultured and extracted as in Example 3 and analyzed by GC-MS as described in Example 1. […]

[2] = test system: E. coli MG1655 ΔfadD lacZ::Ptrc-′tesA; test: Heterologous expression in a fatty aldehyde-producing E. coli strain with MSMEG—5739, GC-MS; assay type: cell-based; conditions: decarbonylase coexpressed with carboxylic acid reductase MSMEG—5739
[3] = In vitro decarbonylation enzyme assay with purified Npun02004178 protein, GC/MS; assay type: biochemical; conditions: 30 μM protein, 200 μM octadecanal, spinach ferredoxin, ferredoxin reductase, 1 mM NADPH, 37° C., 2 h
Procedure: The genomic DNA encoding N. punctiforme PCC73102 Npun02004178 (SEQ ID NO: 5) was cloned into the NdeI and XhoI sites of vector pET-15b under the control of the T7 promoter. The resulting Npun02004178 protein contained an N-terminal His-tag. An E. coli BL21 strain (DE3) (Invitrogen) was transformed with the plasmid by routine chemical transformation techniques. Protein expression was carried out by first inoculating a colony of the E. coli strain in 5 ml of LB media supplemented with 100 mg/L of carbenicillin and shaken overnight at 37° C. to produce a starter culture. This starter cultures was used to inoculate 0.5 L of LB media supplemented with 100 mg/L of carbenecillin. […] Protein concentration was determined using the Bradford assay (Biorad). […]
To test Npun02004178 protein for decarbonylation activity, the following enzyme assays were set-up. […] Samples were analyzed by GC/MS using the following parameters: run time: 13.13 min; column: HP-5-MS Part No. 19091S-433E (length of 30 meters; I.D.: 0.25 mm narrowbore; film: 0.25ìM); inject: 1ìl Agilent 6850 inlet; inlet: 300 C splitless; carrier gas: helium; flow: 1.3 ml/min; oven temp: 75° C. hold 5 min, 320 at 40° C./min, 320 hold 2 min; det: Agilent 5975B VL MSD; det. temp: 330° C.; scan: 50-550 M/Z. Heptadecane from Sigma was used as an authentic reference for determining compound retention time and fragmentation pattern.

B1: Npun02004178: Nostoc punctiforme PCC73102 putative decarbonylase (SEQ ID NO: 5) (protein)
chain: MQQLTDQSKELDFKSETYKDAYSRINAIVIEGEQEAHENYITLAQLLPESHDELIRLSKMESRHKKGFEACGRNLAVTPDLQFAKEFFSGLHQNFQTAAAEGKVVTCLLIQSLIIECFAIAAYNIYIPVADDFARKITEGVVKEEYSHLNFGEVWLKEHFAESKAELELANRQNLPIVWKMLNQVEGDAHTMAMEKDALVEDFMIQYGEALSNIGFSTRDIMRLSAYGLIGA
modifications: Nostoc punctiforme
With B1 the “fatty aldehyde decarbonylase activity (alkane/alkene production)” value [1] was “active fatty aldehyde decarbonylase”, the “conversion of fatty aldehydes provided by MSMEG—5739 to alkanes” value [2] was “produced tridecane, pentadecene and pentadecane” and the “in-vitro conversion of octadecanal to heptadecane” value [3] was “in-vitro conversion of octadecanal to heptadecane was observed”.
